# From patent publication US10918730B2, “Pegylated bioactive peptides and uses thereof” (GRIFFON PHARMACEUTICALS INC., priority 2016, dated 2021)
# Non-standard residues stand in square brackets, D forms with d. No end group written: not given here. hArg = N=C(N)NCCCC[C@H](N)C(=O)O; Orn = NCCC[C@H](N)C(=O)O
# Legend:
# human GHRH receptor = biological target: T1, human GHRH receptor (Homo sapiens, UniProt Q02643); assay: Hit Hunter (DiscoveRx) cAMP agonist assay in cells expressing GHRH receptor; format: cell-based; settings: for potency in words: Table 2 experiment, compared to native peptide; for in vitro biological activity in words: longer PEG chains at the 9th position
# T1 sequence (Q02643 23-423): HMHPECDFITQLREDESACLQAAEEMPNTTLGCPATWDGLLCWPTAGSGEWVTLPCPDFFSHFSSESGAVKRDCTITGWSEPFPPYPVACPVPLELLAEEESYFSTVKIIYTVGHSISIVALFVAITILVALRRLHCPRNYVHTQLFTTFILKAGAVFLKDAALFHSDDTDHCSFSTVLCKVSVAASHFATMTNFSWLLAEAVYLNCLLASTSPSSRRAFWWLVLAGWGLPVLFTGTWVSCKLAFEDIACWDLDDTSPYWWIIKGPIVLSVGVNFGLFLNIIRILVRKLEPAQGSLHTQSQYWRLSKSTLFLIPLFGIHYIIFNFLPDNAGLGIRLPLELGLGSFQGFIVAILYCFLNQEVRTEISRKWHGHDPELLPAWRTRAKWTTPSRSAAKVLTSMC
# Method: For agonist determination, cells were incubated with sample to induce response. Media was aspirated from cells and replaced with 15 μL 2:1 HBSS/10 mM Hepes:cAMP XS+ Ab reagent. […] Vehicle concentration was 1%. […] Microplates were read following signal generation with a PerkinElmer Envision™ instrument for chemiluminescent signal detection. Compound activity was analyzed using CBIS data analysis suite (ChemInnovation, CA).
# Growth Hormone secretion = assay: GH release kinetics after subcutaneous injection in Sprague-Dawley rats; format: in vivo; settings: female rats, single subcutaneous dose 0.04 mg/kg, FIG. 1; for GH AUC (0-90 min): plasma GH by ELISA
# Source text: Protocol: Sprague-Dawley rats (female, weighing from 250 to 300 g) were obtained from Charles River Inc. Animals were used according to a protocol of the Animal Care Committee along with the principles of the Guide for the Care and Use of Experimental Animals of the Canadian Council on Animal Care. The animals were maintained on standard laboratory chow under a 12:12 light:dark cycle. They were kept in groups of 4 rats per cage. The animals were anesthetized with isoflurane 2.5%. A mid-section opening was made in the neck to expose the carotid artery. The carotid artery was canulated with polypropylene tubing (PE-50) to allow blood withdrawal. After surgical preparation, rats received a subcutaneous injection of GHRH analog (10-100 μg/kg) dissolved in 20 mM AcONa+5% mannitol at pH 5). Blood samples (400 μL/time point) were collected from 2-4 animals per group. […] Blood was collected into microtainer tubes containing K3EDTA, mixed and immediately centrifuged at 13,000 RPM in a desktop centrifuge for 2 minutes. The plasma was collected and placed into a screw cap Eppendorf™ tube and quickly frozen in liquid nitrogen. The samples were then kept at −80° C. until assayed. Determination of GH levels was performed as described below.
# Determination of GH levels in plasma samples: Rat and mouse plasma samples were vortexed carefully and centrifuged at 9,000 RPM for 2 min at 4° C. […] The remainder of the procedure was performed according to the manufacturers instructions, and the data obtained were analyzed using GraphPad Prism™ software. […] Growth hormone levels were determined in timed-aliquots of blood and are depicted in FIG. 1. […]
# The N-terminal part of the GHRH peptide is known to be buried in the extracellular loops and transmembrane domains of the GHRH receptor, and thus almost all of the amino acids in the N-terminal domain participate in high affinity binding of the GHRH peptide to the receptor. […] Briefly, peptides (0.04 mg/kg) were subcutaneously injected in female rats and growth hormone levels were determined in timed aliquots of blood drawn from the animals.
molecule,measurement,setting,value
"YaDAIFTASYROVLAQLSAROALQDC(Peg-2K)LSKN-NH2 (Y[dA]DAIFTASYR[Orn]VLAQLSAR[Orn]ALQDC(PEG 2 kDa)LSKN-NH2) [Analog 8 (C26), Cys26 conjugated to about 2 kDa PEG]",potency in words,human GHRH receptor,reduced potency
"YaDAIFTASYROVLC(Peg-2K)QLSAROALQDILSKN-NH2 (Y[dA]DAIFTASYR[Orn]VLC(PEG 2 kDa)QLSAR[Orn]ALQDILSKN-NH2) [Analog 5 (C15), Cys15 conjugated to about 2 kDa PEG]",potency in words,human GHRH receptor,reduced potency
"CC[C@H](C)[C@H](NC(=O)[C@H](C)NC(=O)[C@H](CC(=O)O)NC(=O)[C@H](C)NC(=O)[C@@H](N)Cc1ccc(O)cc1)C(=O)N[C@@H](Cc1ccccc1)C(=O)N[C@H](C(=O)N[C@@H](CC(N)=O)C(=O)N[C@@H](CO)C(=O)N[C@@H](Cc1ccc(O)cc1)C(=O)N[C@@H](CCCNC(=N)N)C(=O)N[C@@H](CCCCN)C(=O)N[C@H](C(=O)N[C@@H](CC(C)C)C(=O)NCC(=O)N[C@@H](CCC(N)=O)C(=O)N[C@@H](CC(C)C)C(=O)N[C@@H](CO)C(=O)N[C@@H](C)C(=O)N[C@@H](CCCNC(=N)N)C(=O)N[C@@H](CCCCN)C(=O)N[C@@H](CC(C)C)C(=O)N[C@@H](CC(C)C)C(=O)N[C@@H](CCC(N)=O)C(=O)N[C@@H](CC(=O)O)C(=O)N[C@H](C(=O)N[C@@H](CCSC)C(=O)N[C@@H](CO)C(=O)N[C@@H](CCCNC(=N)N)C(N)=O)[C@@H](C)CC)C(C)C)[C@@H](C)O [GHRH1-29, reference compound]",Max. response(%) (compared to baseline),"human GHRH receptor; Table 3, independent experiment",112.97%
"YaDAIFTASYROVLAC(Peg-2K)LSAROALQDILSKN-NH2 (Y[dA]DAIFTASYR[Orn]VLAC(PEG 2 kDa)LSAR[Orn]ALQDILSKN-NH2) [Analog 9 (C16), Cys16 conjugated to about 2 kDa PEG]",potency in words,human GHRH receptor,reduced potency
"YaDAIFTASYROVLAQLSC(Peg-2K)ROALQDILSKN-NH2 (Y[dA]DAIFTASYR[Orn]VLAQLSC(PEG 2 kDa)R[Orn]ALQDILSKN-NH2) [Analog 4 (C19), Cys19 conjugated to about 2 kDa PEG]",potency in words,human GHRH receptor,reduced potency
"YaDAIFTAC(Peg-2K)YROVLAQLSAROALQDILS(Har)-NH2 (Y[dA]DAIFTAC(PEG 2 kDa)YR[Orn]VLAQLSAR[Orn]ALQDILS[hArg]-NH2) [Analog 10 (C9), Cys9 conjugated to about 2 kDa PEG, Har29]",fold more potent than the 5K and 40K Pegylated GHRH peptides (analogs 15 and 16),human GHRH receptor; Table 3 experiment,2-6 fold
same,fold more potent than the native peptide,human GHRH receptor; Table 3 experiment,~14 fold
"YaDAIFTAC(Peg-2K)YROVLAQLSAROALQDILSKN-NH2 (Y[dA]DAIFTAC(PEG 2 kDa)YR[Orn]VLAQLSAR[Orn]ALQDILSKN-NH2) [Analog 6 (C9), Cys9 conjugated to about 2 kDa PEG]",GH AUC (0-90 min),Growth Hormone secretion,29075 ng/ml/90 min
"YaDAIFTC(Peg-2K)SYROVLAQLSAROALQDILSKN-NH2 (Y[dA]DAIFTC(PEG 2 kDa)SYR[Orn]VLAQLSAR[Orn]ALQDILSKN-NH2) [Analog 7 (C8), Cys8 conjugated to about 2 kDa PEG]",potency in words,human GHRH receptor,reduced potency
same,GH AUC (0-90 min),Growth Hormone secretion,15657 ng/ml/90 min
"YaDAIFTAC(Peg-40K)YROVLAQLSAROALQDILS(Har)-NH2 (Y[dA]DAIFTAC(PEG 40 kDa)YR[Orn]VLAQLSAR[Orn]ALQDILS[hArg]-NH2) [Analog 16 (C9), Cys9 conjugated to about 40 kDa PEG, Har29]",in vitro biological activity in words,human GHRH receptor; Table 3 experiment,without loss of in vitro biological activity
"YaDAIFTASYROVLAQLSAROALQDILC(Peg-2K)KN-NH2 (Y[dA]DAIFTASYR[Orn]VLAQLSAR[Orn]ALQDILC(PEG 2 kDa)KN-NH2) [Analog 1 (C28), GHRH analog with Cys28 conjugated to about 2 kDa PEG]",stimulation of GH secretion in words,Growth Hormone secretion,potently stimulated GH secretion
"YaDAIFTAC(Peg-5K)YROVLAQLSAROALQDILS(Har)-NH2 (Y[dA]DAIFTACYR[Orn]VLAQLSAR[Orn]ALQDILS[hArg]-NH2; not fully specified (residue 9); printed as YaDAIFTAC(Peg-5K)YROVLAQLSAROALQDILS(Har)-NH2) [Analog 15 (C9), Cys9 conjugated to 5K PEG, Har29]",in vitro biological activity in words,human GHRH receptor; Table 3 experiment,without loss of in vitro biological activity
